4 substances from patent publication US20180298083A1 can be followed below.

In one test the target is N332A (HIV-1). As to the kind of experiment: gp120 capture ELISA. (In general: An ELISA detects its analyte on a solid surface through an enzyme-linked reagent.)
Test [1] addresses monomeric gp120^JRCSF (HIV-1 strain JRCSF) (UniProt P20871). As to the kind of experiment: gp120 capture ELISA.
The target in test [2] is gp120 Resurfaced Stabilized Core (RSC3). As to the kind of experiment: ELISA on coated RSC3.
The target in another test is G367A (HIV-1). The experiment in a line: gp120 capture ELISA.
For the next test, the target named is P369A (HIV-1). The experiment in a line: gp120 capture ELISA.
A further test concerns the target E370A (HIV-1). As to the kind of experiment: gp120 capture ELISA.
The next test has as its target N262A (HIV-1). The experiment in a line: gp120 capture ELISA.
A further test deals with I467A (HIV-1). The experiment in a line: gp120 capture ELISA.
For another test, the target named is R476A (HIV-1). As to the kind of experiment: gp120 capture ELISA.
Another test concerns the target G473A (HIV-1). As to the kind of experiment: gp120 capture ELISA.
The target in a further test is I371A (HIV-1). As to the kind of experiment: gp120 capture ELISA.
The target of the next test is D474A (HIV-1). The experiment in a line: gp120 capture ELISA.
In another test the target is D167N (HIV-1). As to the kind of experiment: gp120 capture ELISA.
The target in a further test is N280A (HIV-1). As to the kind of experiment: gp120 capture ELISA.
Another test deals with S365A (HIV-1). The experiment in a line: gp120 capture ELISA.
The target of another test is G472A (HIV-1). The experiment in a line: gp120 capture ELISA.
The target in another test is G471A (HIV-1). As to the kind of experiment: gp120 capture ELISA.
A further test concerns the target K282A (HIV-1). The experiment in a line: gp120 capture ELISA.
Another test has as its target V372A (HIV-1). As to the kind of experiment: gp120 capture ELISA.
The next test deals with D279A (HIV-1). The experiment in a line: gp120 capture ELISA.
The target in another test is D368A (HIV-1). The experiment in a line: gp120 capture ELISA.
Another test has as its target N197T (HIV-1). As to the kind of experiment: gp120 capture ELISA.
For a further test, the target named is R469A (HIV-1). As to the kind of experiment: gp120 capture ELISA.
The next test has as its target G366A (HIV-1). The experiment in a line: gp120 capture ELISA.
A further test deals with D457A (HIV-1). As to the kind of experiment: gp120 capture ELISA.
Another test deals with T283A (HIV-1). The experiment in a line: gp120 capture ELISA.
For a further test, the target named is M373A (HIV-1). The experiment in a line: gp120 capture ELISA.
Another test has as its target M475A (HIV-1). The experiment in a line: gp120 capture ELISA.
For test [3], the target named is gp120 of X2088 (HIV-1 strain X2088.c9).
Test [4] concerns the target HIV-1 YU2 gp120 (HIV-1 strain YU2) (UniProt P35961). As to the kind of experiment: competition ELISA on gp120 YU2, unlabelled CD4-Ig against CD4Ig-biotin.

The term EC50 (read off the curve) denotes the concentration needed to bring the measured effect to its halfway point. The low end stands for greater potency, the high end for weaker potency. 2G12 (antibody): the Binding affinity relative to WT (%) in the test with N332A (HIV-1) came to 3%; in test [1] it was 100%. For the same substance, in [2], the EC50 (read off the curve) worked out at 0.03 µg/mL.

Turning to 12A21 (antibody), the Binding affinity relative to WT (%) with G367A (HIV-1) was 2%; with P369A (HIV-1), 122%; in the test with E370A (HIV-1), 16%; in the test with N262A (HIV-1), 167%; with I467A (HIV-1), 49%; in the test with R476A (HIV-1) it was 73%. For the same substance, the Binding affinity relative to WT (%) with G473A (HIV-1) worked out at 53%; in the test with I371A (HIV-1), 17%; with D474A (HIV-1) it was 19%; with D167N (HIV-1), 108%; with N280A (HIV-1), 174%; with S365A (HIV-1), 454%. The Binding affinity relative to WT (%) with G472A (HIV-1) was 97%; with G471A (HIV-1) it was 162%; with K282A (HIV-1) it was 29%; in the test with V372A (HIV-1) it was 36%; with N332A (HIV-1), 206%; in the test with D279A (HIV-1), 188%. Moreover, the Binding affinity relative to WT (%) amounted to 30% with D368A (HIV-1); 131% with N197T (HIV-1); 100% in test [1]; 66% with R469A (HIV-1); 6% in the test with G366A (HIV-1); 23% with D457A (HIV-1). In addition, the Binding affinity relative to WT (%) in the test with T283A (HIV-1) turned out to be 68%; with M373A (HIV-1), 63%; in the test with M475A (HIV-1) it was 76%. Also, the neutralisation IC50 in the test with T250-4 (HIV-1) was above 50 µg/mL; with CAAN.A2 (HIV-1), 0.539 µg/mL; in test [3], above 50 µg/mL; with 6631.V3.C10 (HIV-1), 2.37 µg/mL.

As for “CD4-Ig (from UniProt P01730 26-203) (Fc fusion)”, the Binding affinity relative to WT (%) with G367A (HIV-1) is 3%; with P369A (HIV-1), 54%; with E370A (HIV-1), 5%; with N262A (HIV-1) it was 2%; with I467A (HIV-1) it was 115%; with R476A (HIV-1), 79%. The Binding affinity relative to WT (%) came out at 0% with G473A (HIV-1); 12% with I371A (HIV-1); 45% with D474A (HIV-1); 58% with D167N (HIV-1); 75% with N280A (HIV-1); 34% with S365A (HIV-1). The Binding affinity relative to WT (%) with G472A (HIV-1) is 2%; in the test with G471A (HIV-1), 141%; in the test with K282A (HIV-1) it was 53%; with V372A (HIV-1) it was 73%; in the test with N332A (HIV-1), 57%; with D279A (HIV-1), 49%. The Binding affinity relative to WT (%) turned out to be 5% with D368A (HIV-1); 25% with N197T (HIV-1); 7% with R469A (HIV-1); 7% in the test with G366A (HIV-1); 3% with D457A (HIV-1); 55% with T283A (HIV-1). Moreover, the Binding affinity relative to WT (%) was determined as 91% with M373A (HIV-1) and 117% in the test with M475A (HIV-1). In [4], this substance registered an IC50 (read off the curve) of 0.06 µg/mL.

In [2], b12 (antibody) had an EC50 (read off the curve) of 0.01 µg/mL.
